T1: biotinylated recombinant BH3-tagged mIL-2 (mouse, UniProt P04351 21-169, biotinylated with BirA enzyme (on the tag))
T1 construct: Secreted by Hi5 insect cells and immobilized on an SA sensor chip for SPR; also called biotinylated mouse IL-2; biotinylated IL-2; not shown: BH3 tag
T1 sequence (looked up): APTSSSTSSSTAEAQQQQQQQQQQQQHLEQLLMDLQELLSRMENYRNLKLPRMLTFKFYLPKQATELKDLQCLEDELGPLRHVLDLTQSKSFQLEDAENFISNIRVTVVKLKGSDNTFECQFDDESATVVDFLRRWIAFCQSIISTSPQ

B1: WT (receptor)
CD25 (IL-2Rα) chain: ELCDDDPPEIPHATFKAMAYKEGTMLNCECKRGFRRIKSGSLYMLCTGNSSHSSWDNQCQCTSSATRNTTKQVTPQPEEQKERKTTEMQSPMQPVDQASLPGHCREPPPWENEATERIYHFVVGQMVYYQCVQGYRALHRGPAESVCKMTHGKTRWTQPQLICTGEMETSQFPGEEKPQASPEGRPESETSCLVTTTDFQIQTEMAATMETSIFTTE
notes: also called WT hCD25; wild-type human CD25
B2: B5 (receptor)
CD25 (IL-2Rα) chain: B1 CD25 (IL-2Rα) chain with M25I, N27V, E29D, L42A, I118R, H120W, K153Q
notes: also called B5 hCD25
B3: F5 (receptor)
CD25 (IL-2Rα) chain: B1 CD25 (IL-2Rα) chain with M25L, N27V, L42A, I118N, H120M, K153G
notes: also called F5 hCD25
B4: E8 (receptor)
CD25 (IL-2Rα) chain: B1 CD25 (IL-2Rα) chain with L2Q, M25V, N27Y, L42A, I118R, H120W
notes: also called E8 hCD25
B5: WT (receptor)
CD25 (IL-2Rα) chain: ELCLYDPPEVPNATFKALSYKNGTILNCECKRGFRRLKELVYMRCLGNSWSSNCQCTSNSHDKSRKQVTAQLEHQKEQQTTTDMQKPTQSMHQENLTGHCREPPPWKHEDSKRIYHFVEGQSVHYECIPGYKALQRGPAISICKMKCGKTGWTQPQLTCVDEREHHRFLASEESQGSRNSSPESETSCPITTTDFPQPTETTAMTETFVLTME
notes: also called WT mCD25; wild-type mouse CD25
B6: B4 (receptor)
CD25 (IL-2Rα) chain: B5 CD25 (IL-2Rα) chain with N27E, E29R, V41W, Y42I, M43V, N59T, I114E, H116T
notes: also called B4 mCD25

Residue numbers refer to the chain shown, from its start.

A word on the Kd: it is a measure of binding affinity in units of concentration.

The target in the first experiment is T2, biotinylated recombinant BH3-tagged hIL-2 (human, UniProt P60568 21-153, biotinylated with BirA enzyme (on the tag)).
T2 construct: Secreted by Hi5 insect cells and immobilized on an SA sensor chip for SPR; also called biotinylated human IL-2; biotinylated IL-2; not shown: BH3 tag
T2 sequence (P60568 21-153): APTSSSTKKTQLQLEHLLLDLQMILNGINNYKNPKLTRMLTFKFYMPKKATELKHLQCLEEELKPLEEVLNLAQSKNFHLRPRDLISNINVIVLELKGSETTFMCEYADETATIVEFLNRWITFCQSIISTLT
Nature of the experiment: SPR (Biacore T100), biotinylated hIL-2 immobilised on an SA chip, soluble CD25 flowed over. The text has this: (§1) FIG. 4A-4B—Sequences and affinities of high affinity CD25 variants. DNA encoding high affinity variants was extracted after clone screens by yeast plasmid minipreps. Sequences for hCD25 (FIG. 4A) and mCD25 (FIG. 4B) clones are aligned with wild-type (WT) CD25. Residues are the same as WT except as noted, and the EAV sequence is not aligned to WT mCD25 due to differences between species. Consensus mutations for hCD25 are highlighted in blue, and deletions are marked by dashes. Affinity measurements for each clone were determined by surface plasmon resonance.
(§2) Surface plasmon resonance (FIG. 4). Sequences of high-affinity CD25 identified from the clone screens were determined by yeast miniprep (Zymo Research), and cloned into pAcBN vectors for expression in Hi5 cells. Soluble high-affinity CD25 proteins were purified by FPLC. Affinity was measured by surface plasmon resonance (Biacore T100), with biotinylated mouse or human IL-2 immobilized on a SA sensor chip (GE Healthcare). CD25 variants were flowed over the chip and the chip was regenerated between runs.
On the technique in general: In SPR one partner is held on a chip, and binding of the other changes the refractive index at the surface.
B1: the Kd came to 2 nM.

Take B2: the Kd came to 0.046 nM. Still for that read-out and setting: in the case of B3 it was 0.086 nM; in that of B4, 0.045 nM.

The next experiment has as its target T1, biotinylated recombinant BH3-tagged …. Description: SPR (Biacore T100), biotinylated mIL-2 immobilised on an SA chip, soluble CD25 flowed over.
Text: as §1, §2
On to B5, for which the Kd was 6.9 nM.

Turning to B6, the Kd turned out to be 0.46 nM.

The values above are taken from patent US20200385438A1 (Stanford University, published 2020).
